Experimental data taken from patent US20220098329A1 (Memorial Sloan Kettering, published 2022).

Experiments:
[1] = biological target: T1, huCD3de antigen (human CD3 delta/epsilon, coated on SPR chip) (human, UniProt P07766 23-126; P04234 22-105); assay: SPR (Biacore T200), huCD3de-coated chip, BsAb titrated over chip, two-state reaction model
T1 construct: Source and construct are not described; also called CD3 coated chips

[2] = biological target: T1, huCD3de antigen (human CD3 …); assay: SPR (Biacore T200), huCD3de-coated chip
[3] = biological target: T2, CD33 on MOLM13-fluc cells (UniProt P20138 18-364, limits assumed); assay: flow cytometry, CD33(+) MOLM13-fluc cells
T2 construct: whole, on cells; also called CD33(+) MOLM13-fluc
T2 sequence (P20138 18-364 limits assumed): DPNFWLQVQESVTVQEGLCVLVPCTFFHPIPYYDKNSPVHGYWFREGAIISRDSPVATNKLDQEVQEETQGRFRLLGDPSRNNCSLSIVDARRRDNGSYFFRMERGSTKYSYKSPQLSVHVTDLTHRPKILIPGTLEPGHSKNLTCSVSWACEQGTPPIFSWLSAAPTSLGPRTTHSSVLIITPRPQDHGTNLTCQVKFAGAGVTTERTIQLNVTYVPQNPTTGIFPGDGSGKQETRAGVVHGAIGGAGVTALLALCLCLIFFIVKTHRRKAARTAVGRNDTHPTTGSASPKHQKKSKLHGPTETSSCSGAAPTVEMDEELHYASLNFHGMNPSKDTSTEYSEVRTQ

T1 sequence (P07766 23-126, stated change not applied, chain 1 of 2): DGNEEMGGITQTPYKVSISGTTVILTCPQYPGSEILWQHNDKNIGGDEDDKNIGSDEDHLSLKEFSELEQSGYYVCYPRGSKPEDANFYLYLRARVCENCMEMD
T1 sequence (P04234 22-105, stated change not applied, chain 2 of 2): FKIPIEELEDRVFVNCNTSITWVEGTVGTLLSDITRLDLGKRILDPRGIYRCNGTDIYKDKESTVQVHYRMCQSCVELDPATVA

| Binder | Kd [1] [nM] | Fold Change (KD CD3, against 2+2) [2] [fold] | binding result [3] |
| --- | --- | --- | --- |
| 2+2 IgG-[L]-scFv bispecific antibody, anti-GD2 Fab x anti-CD3 scFv (2(GD2)+2(CD3)) (bispecific antibody, Homodimeric format; also called 2+2 BsAb; parental 2+2) light: EIVMTQTPATLSVSAGERVTITCKASQSVSNDVTWYQQKPGQAPRLLIYSASNRYSGVPARFSGSGYGTEFTFTISSVQSEDFAVYFCQQDYSSFGQGTKLEIKRTVAAPSVFIFPPSDEQLKSGTASVVCLLNNFYPREAKVQWKVDNALQSGNSQESVTEQDSKDSTYSLSSTLTLSKADYEKHKVYACEVTHQGLSSPVTKSFNRGECTSGGGGSGGGGSGGGGSQVQLVQSGGGVVQPGRSLRLSCKASGYTFTRYTMHWVRQAPGKCLEWIGYINPSRGYTNYNQKFKDRFTISRDNSKNTAFLQMDSLRPEDTGVYFCARYYDDHYSLDYWGQGTPVTVSSGGGGSGGGGSGGGGSGGGGSGGGGSGGGGSDIQMTQSPSSLSASVGDRVTITCSASSSVSYMNWYQQTPGKAPKRWIYDTSKLASGVPSRFSGSGSGTDYTFTISSLQPEDIATYYCQQWSSNPFTFGCGTKLQITR heavy: not shown | 10 | – | – |
| 1+1T IgG-[L]-scFv variant, one anti-GD2 Fab and one anti-CD3 scFv in trans, second Fab irrelevant (anti-CD33) (bispecific antibody) light 1: EIVMTQTPATLSVSAGERVTITCKASQSVSNDVTWYQQKPGQAPRLLIYSASNRYSGVPARFSGSGYGTEFTFTISSVQSEDFAVYFCQQDYSSFGQGTKLEIKRTVAAPSVFIFPPSDEQLKSGTASVVCLLNNFYPREAKVQWKVDNALQSGNSQESVTEQDSKDSTYSLSSTLTLSKADYEKHKVYACEVTHQGLSSPVTKSFNRGEC heavy 1: not shown light 2: EIVLTQSPATLSVSLGERATISCRASESVDNYGISFMNWFQQKPGQPPRLLIYAASNQGSGVPARFSGSGPGTDFTLTISSMEPEDFAMYFCQQSKEVPWTFGGGTKLEIKRTVAAPSVFIFPPSDEQLKSGTASVVCLLNNFYPREAKVQWKVDNALQSGNSQESVTEQDSKDSTYSLSSTLTLSKADYEKHKVYACEVTHQGLSSPVTKSFNRGECTSGGGGSGGGGSGGGGSQVQLVQSGGGVVQPGRSLRLSCKASGYTFTRYTMHWVRQAPGKCLEWIGYINPSRGYTNYNQKFKDRFTISRDNSKNTAFLQMDSLRPEDTGVYFCARYYDDHYSLDYWGQGTPVTVSSGGGGSGGGGSGGGGSGGGGSGGGGSGGGGSDIQMTQSPSSLSASVGDRVTITCSASSSVSYMNWYQQTPGKAPKRWIYDTSKLASGVPSRFSGSGSGTDYTFTISSLQPEDIATYYCQQWSSNPFTFGCGTKLQITR heavy 2: not shown | 88 | 8.5 | – |
| 2+1 IgG-[L]-scFv variant, two anti-GD2 Fabs and one anti-CD3 scFv (2(GD2)+1(CD3)) (bispecific antibody, Heterodimer made by Fab arm exchange; Choice of the first anti-GD2 set as for m1; also called 2+1 BsAb) light 1: EIVMTQTPATLSVSAGERVTITCKASQSVSNDVTWYQQKPGQAPRLLIYSASNRYSGVPARFSGSGYGTEFTFTISSVQSEDFAVYFCQQDYSSFGQGTKLEIKRTVAAPSVFIFPPSDEQLKSGTASVVCLLNNFYPREAKVQWKVDNALQSGNSQESVTEQDSKDSTYSLSSTLTLSKADYEKHKVYACEVTHQGLSSPVTKSFNRGECTSGGGGSGGGGSGGGGSQVQLVQSGGGVVQPGRSLRLSCKASGYTFTRYTMHWVRQAPGKCLEWIGYINPSRGYTNYNQKFKDRFTISRDNSKNTAFLQMDSLRPEDTGVYFCARYYDDHYSLDYWGQGTPVTVSSGGGGSGGGGSGGGGSGGGGSGGGGSGGGGSDIQMTQSPSSLSASVGDRVTITCSASSSVSYMNWYQQTPGKAPKRWIYDTSKLASGVPSRFSGSGSGTDYTFTISSLQPEDIATYYCQQWSSNPFTFGCGTKLQITR light 2: EIVMTQTPATLSVSAGERVTITCKASQSVSNDVTWYQQKPGQAPRLLIYSASNRYSGVPARFSGSGYGTEFTFTISSVQSEDFAVYFCQQDYSSFGQGTKLEIKRTVAAPSVFIFPPSDEQLKSGTASVVCLLNNFYPREAKVQWKVDNALQSGNSQESVTEQDSKDSTYSLSSTLTLSKADYEKHKVYACEVTHQGLSSPVTKSFNRGEC heavy 1: QVQLVESGPGVVQPGRSLRISCAVSGFSVTNYGVHWVRQPPGKGLEWLGVIWAGGITNYNSAFMSRLTISKDNSKNTVYLQMNSLRAEDTAMYYCASRGGHYGYALDYWGQGTLVTVSSASTKGPSVFPLAPSSKSTSGGTAALGCLVKDYFPEPVTVSWNSGALTSGVHTFPAVLQSSGLYSLSSVVTVPSSSLGTQTYICNVNHKPSNTKVDKRVEPKSCDKTHTCPPCPAPELLGGPSVFLFPPKPKDTLMISRTPEVTCVVVDVSHEDPEVKFNWYVDGVEVHNAKTKPREEQYASTYRVVSVLTVLHQDWLNGKEYKCAVSNKALPAPIEKTISKAKGQPREPQVYTLPPSRDELTKNQVSLTCLVKGFYPSDIAVEWESNGQPENNYKTTPPVLDSDGSFLLYSKLTVDKSRWQQGNVFSCSVMHEALHNHYTQKSLSLSPGK heavy 2: QVQLVESGPGVVQPGRSLRISCAVSGFSVTNYGVHWVRQPPGKGLEWLGVIWAGGITNYNSAFMSRLTISKDNSKNTVYLQMNSLRAEDTAMYYCASRGGHYGYALDYWGQGTLVTVSSASTKGPSVFPLAPSSKSTSGGTAALGCLVKDYFPEPVTVSWNSGALTSGVHTFPAVLQSSGLYSLSSVVTVPSSSLGTQTYICNVNHKPSNTKVDKRVEPKSCDKTHTCPPCPAPELLGGPSVFLFPPKPKDTLMISRTPEVTCVVVDVSHEDPEVKFNWYVDGVEVHNAKTKPREEQYASTYRVVSVLTVLHQDWLNGKEYKCAVSNKALPAPIEKTISKAKGQPREPQVYTLPPSRDELTKNQVSLTCLVKGFYPSDIAVEWESNGQPENNYKTTPPVLDSDGSFFLYSRLTVDKSRWQQGNVFSCSVMHEALHNHYTQKSLSLSPGK | 310 | 30.1 | – |
| 2+2 IgG-[L]-scFv, anti-CD33 Fab x anti-CD3 scFv (bispecific antibody, also called 2+2 (CD33); anti-CD33/CD3 IgG-[L]-scFv) light: EIVLTQSPATLSVSLGERATISCRASESVDNYGISFMNWFQQKPGQPPRLLIYAASNQGSGVPARFSGSGPGTDFTLTISSMEPEDFAMYFCQQSKEVPWTFGGGTKLEIKRTVAAPSVFIFPPSDEQLKSGTASVVCLLNNFYPREAKVQWKVDNALQSGNSQESVTEQDSKDSTYSLSSTLTLSKADYEKHKVYACEVTHQGLSSPVTKSFNRGECTSGGGGSGGGGSGGGGSQVQLVQSGGGVVQPGRSLRLSCKASGYTFTRYTMHWVRQAPGKCLEWIGYINPSRGYTNYNQKFKDRFTISRDNSKNTAFLQMDSLRPEDTGVYFCARYYDDHYSLDYWGQGTPVTVSSGGGGSGGGGSGGGGSGGGGSGGGGSGGGGSDIQMTQSPSSLSASVGDRVTITCSASSSVSYMNWYQQTPGKAPKRWIYDTSKLASGVPSRFSGSGSGTDYTFTISSLQPEDIATYYCQQWSSNPFTFGCGTKLQITR heavy: not shown | – | – | binds |
| 1+1C IgG-[L]-scFv variant, one anti-GD2 Fab and one anti-CD3 scFv in cis, second Fab irrelevant (anti-CD33) (bispecific antibody) light 1: EIVMTQTPATLSVSAGERVTITCKASQSVSNDVTWYQQKPGQAPRLLIYSASNRYSGVPARFSGSGYGTEFTFTISSVQSEDFAVYFCQQDYSSFGQGTKLEIKRTVAAPSVFIFPPSDEQLKSGTASVVCLLNNFYPREAKVQWKVDNALQSGNSQESVTEQDSKDSTYSLSSTLTLSKADYEKHKVYACEVTHQGLSSPVTKSFNRGECTSGGGGSGGGGSGGGGSQVQLVQSGGGVVQPGRSLRLSCKASGYTFTRYTMHWVRQAPGKCLEWIGYINPSRGYTNYNQKFKDRFTISRDNSKNTAFLQMDSLRPEDTGVYFCARYYDDHYSLDYWGQGTPVTVSSGGGGSGGGGSGGGGSGGGGSGGGGSGGGGSDIQMTQSPSSLSASVGDRVTITCSASSSVSYMNWYQQTPGKAPKRWIYDTSKLASGVPSRFSGSGSGTDYTFTISSLQPEDIATYYCQQWSSNPFTFGCGTKLQITR heavy 1: not shown light 2: EIVLTQSPATLSVSLGERATISCRASESVDNYGISFMNWFQQKPGQPPRLLIYAASNQGSGVPARFSGSGPGTDFTLTISSMEPEDFAMYFCQQSKEVPWTFGGGTKLEIKRTVAAPSVFIFPPSDEQLKSGTASVVCLLNNFYPREAKVQWKVDNALQSGNSQESVTEQDSKDSTYSLSSTLTLSKADYEKHKVYACEVTHQGLSSPVTKSFNRGEC heavy 2: not shown | 110 | 11 | – |
| 1+2 IgG-[L]-scFv variant, one anti-GD2 Fab, one irrelevant (anti-CD33) Fab, two anti-CD3 scFv (1(GD2)+2(CD3)) (bispecific antibody, also called 1+2 BsAb) light 1: EIVMTQTPATLSVSAGERVTITCKASQSVSNDVTWYQQKPGQAPRLLIYSASNRYSGVPARFSGSGYGTEFTFTISSVQSEDFAVYFCQQDYSSFGQGTKLEIKRTVAAPSVFIFPPSDEQLKSGTASVVCLLNNFYPREAKVQWKVDNALQSGNSQESVTEQDSKDSTYSLSSTLTLSKADYEKHKVYACEVTHQGLSSPVTKSFNRGECTSGGGGSGGGGSGGGGSQVQLVQSGGGVVQPGRSLRLSCKASGYTFTRYTMHWVRQAPGKCLEWIGYINPSRGYTNYNQKFKDRFTISRDNSKNTAFLQMDSLRPEDTGVYFCARYYDDHYSLDYWGQGTPVTVSSGGGGSGGGGSGGGGSGGGGSGGGGSGGGGSDIQMTQSPSSLSASVGDRVTITCSASSSVSYMNWYQQTPGKAPKRWIYDTSKLASGVPSRFSGSGSGTDYTFTISSLQPEDIATYYCQQWSSNPFTFGCGTKLQITR heavy 1: not shown light 2: EIVLTQSPATLSVSLGERATISCRASESVDNYGISFMNWFQQKPGQPPRLLIYAASNQGSGVPARFSGSGPGTDFTLTISSMEPEDFAMYFCQQSKEVPWTFGGGTKLEIKRTVAAPSVFIFPPSDEQLKSGTASVVCLLNNFYPREAKVQWKVDNALQSGNSQESVTEQDSKDSTYSLSSTLTLSKADYEKHKVYACEVTHQGLSSPVTKSFNRGECTSGGGGSGGGGSGGGGSQVQLVQSGGGVVQPGRSLRLSCKASGYTFTRYTMHWVRQAPGKCLEWIGYINPSRGYTNYNQKFKDRFTISRDNSKNTAFLQMDSLRPEDTGVYFCARYYDDHYSLDYWGQGTPVTVSSGGGGSGGGGSGGGGSGGGGSGGGGSGGGGSDIQMTQSPSSLSASVGDRVTITCSASSSVSYMNWYQQTPGKAPKRWIYDTSKLASGVPSRFSGSGSGTDYTFTISSLQPEDIATYYCQQWSSNPFTFGCGTKLQITR heavy 2: not shown | 11 | 1 | – |
| IgG-Het, heterodimeric IgG with one anti-GD2 Fab and one anti-CD3 Fab (1+1) (bispecific antibody, also called 1+1H; 1 + 1H) light 1: EIVMTQTPATLSVSAGERVTITCKASQSVSNDVTWYQQKPGQAPRLLIYSASNRYSGVPARFSGSGYGTEFTFTISSVQSEDFAVYFCQQDYSSFGQGTKLEIKRTVAAPSVFIFPPSDEQLKSGTASVVCLLNNFYPREAKVQWKVDNALQSGNSQESVTEQDSKDSTYSLSSTLTLSKADYEKHKVYACEVTHQGLSSPVTKSFNRGEC heavy 1: not shown light 2: DIQMTQSPSSLSASVGDRVTITCSASSSVSYMNWYQQTPGKAPKRWIYDTSKLASGVPSRFSGSGSGTDYTFTISSLQPEDIATYYCQQWSSNPFTFGQGTKLQITRTVAAPSVFIFPPSDEQLKSGTASVVCLLNNFYPREAKVQWKVDNALQSGNSQESVTEQDSKDSTYSLSSTLTLSKADYEKHKVYACEVTHQGLSSPVTKSFNRGEC heavy 2: not shown | 70 | 6.8 | – |
